Measured values as given in patent US20220363736A1 (ICAHN SCHOOL OF MEDICINE AT MOUNT SINAI, published 2022).
Where two headings read alike, the source gives them in different places.

Legend:
[1] = target: recombinant neuraminidase (rNA) from B/Florida/04/2006 (influenza B virus B/Florida/04/06)
[2] = target: neuraminidase of the ancestral B/Lee/40 strain (influenza B virus B/Lee/40, UniProt P03474 1-466); assay: ELISA on purified whole virus
[3] = target: neuraminidase of wild type B/Malaysia/2506/04 virus (influenza B virus B/Malaysia/2506/04)
[4] = target: neuraminidase of wild type B/Malaysia/2506/04 virus (influenza B virus B/Malaysia/2506/04); remark: listed apart in the source
[5] = target: recombinant neuraminidase (rNA) from B/Malaysia/2506/04 (influenza B virus B/Malaysia/2506/04)
[6] = target: recombinant neuraminidase (rNA) from B/Florida/04/2006 (influenza B virus B/Florida/04/06); remark: listed apart in the source
[7] = target: recombinant neuraminidase (rNA) from B/Malaysia/2506/04 (influenza B virus B/Malaysia/2506/04); remark: listed apart in the source
[8] = target: neuraminidase of wild type B/Malaysia/2506/04 virus (influenza B virus B/Malaysia/2506/04); remark: listed apart in the source

Sequence of neuraminidase of the ancestral B/Lee/40 strain (P03474 whole entry): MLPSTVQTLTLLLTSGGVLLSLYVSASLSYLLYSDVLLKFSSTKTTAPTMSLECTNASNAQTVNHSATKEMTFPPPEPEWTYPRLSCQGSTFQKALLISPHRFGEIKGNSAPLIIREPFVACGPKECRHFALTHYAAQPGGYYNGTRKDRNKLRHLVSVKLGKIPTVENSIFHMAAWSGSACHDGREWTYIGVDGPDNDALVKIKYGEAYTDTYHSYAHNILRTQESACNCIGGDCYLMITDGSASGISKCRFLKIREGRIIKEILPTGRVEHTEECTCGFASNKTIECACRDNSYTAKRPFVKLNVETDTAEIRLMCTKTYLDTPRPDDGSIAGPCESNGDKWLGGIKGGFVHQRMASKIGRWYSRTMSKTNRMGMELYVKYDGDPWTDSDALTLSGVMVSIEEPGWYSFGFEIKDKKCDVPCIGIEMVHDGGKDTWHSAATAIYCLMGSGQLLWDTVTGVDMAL

B1: monoclonal antibody 1F2 (hybridoma-produced, murine IgG2a) (antibody, V domains shown)
VH: QVHLQQSGPEVARPGASVKLSCKASGYTFTDYYLNWVKQRPRQGLEWIGQIHPGSTNTYYNEKFKGKATLTADKSSSTAYMQLSSLTFEDSAVYFCAISLGDGYYVYAMVCWGQGTAVTVSS
VL: DIVMTQSQKFMSTSVGDRVSVTCKASQNVVTNVVWYQQKPGQSPKPLIYSASYRYSGVPDRFTGSGSGTDFTLTISNVQSEDLAEYCCQQYHSYPFTFGSGTKLEVK
- EC50 (read off the curve) [1]: 0.03 µg/mL
- binding result [2]: binds
- IC50 (read off the curve) [3]: 0.09 µg/mL
- IC50 (read off the curve) [4]: 2 µg/mL

B2: recombinantly expressed 1F2 IgG1 (antibody, V domains shown)
VH: QVHLQQSGPEVARPGASVKLSCKASGYTFTDYYLNWVKQRPRQGLEWIGQIHPGSTNTYYNEKFKGKATLTADKSSSTAYMQLSSLTFEDSAVYFCAISLGDGYYVYAMVCWGQGTAVTVSS
VL: DIVMTQSQKFMSTSVGDRVSVTCKASQNVVTNVVWYQQKPGQSPKPLIYSASYRYSGVPDRFTGSGSGTDFTLTISNVQSEDLAEYCCQQYHSYPFTFGSGTKLEVK
- EC50 (read off the curve) [1]: 0.05 µg/mL
- Kd [5]: 1050 pM

B3: recombinantly expressed 1F2 IgG2a (antibody, V domains shown)
VH: QVHLQQSGPEVARPGASVKLSCKASGYTFTDYYLNWVKQRPRQGLEWIGQIHPGSTNTYYNEKFKGKATLTADKSSSTAYMQLSSLTFEDSAVYFCAISLGDGYYVYAMVCWGQGTAVTVSS
VL: DIVMTQSQKFMSTSVGDRVSVTCKASQNVVTNVVWYQQKPGQSPKPLIYSASYRYSGVPDRFTGSGSGTDFTLTISNVQSEDLAEYCCQQYHSYPFTFGSGTKLEVK
- EC50 (read off the curve) [1]: 0.03 µg/mL
- Kd [5]: 680 pM
- IC50 (read off the curve) [3]: 0.1 µg/mL

B4: recombinantly expressed 1F2 IgG2b (antibody, V domains shown)
VH: QVHLQQSGPEVARPGASVKLSCKASGYTFTDYYLNWVKQRPRQGLEWIGQIHPGSTNTYYNEKFKGKATLTADKSSSTAYMQLSSLTFEDSAVYFCAISLGDGYYVYAMVCWGQGTAVTVSS
VL: DIVMTQSQKFMSTSVGDRVSVTCKASQNVVTNVVWYQQKPGQSPKPLIYSASYRYSGVPDRFTGSGSGTDFTLTISNVQSEDLAEYCCQQYHSYPFTFGSGTKLEVK
- EC50 (read off the curve) [1]: 0.03 µg/mL
- Kd [5]: 1160 pM
- IC50 (read off the curve) [3]: 0.3 µg/mL

B5: 1F2 Fab (Fab, V domains shown)
VH: QVHLQQSGPEVARPGASVKLSCKASGYTFTDYYLNWVKQRPRQGLEWIGQIHPGSTNTYYNEKFKGKATLTADKSSSTAYMQLSSLTFEDSAVYFCAISLGDGYYVYAMVCWGQGTAVTVSS
VL: DIVMTQSQKFMSTSVGDRVSVTCKASQNVVTNVVWYQQKPGQSPKPLIYSASYRYSGVPDRFTGSGSGTDFTLTISNVQSEDLAEYCCQQYHSYPFTFGSGTKLEVK
- IC50 (read off the curve) [4]: 3 µg/mL

B6: recombinantly expressed 1F2 IgM (antibody, V domains shown)
VH: QVHLQQSGPEVARPGASVKLSCKASGYTFTDYYLNWVKQRPRQGLEWIGQIHPGSTNTYYNEKFKGKATLTADKSSSTAYMQLSSLTFEDSAVYFCAISLGDGYYVYAMVCWGQGTAVTVSS
VL: DIVMTQSQKFMSTSVGDRVSVTCKASQNVVTNVVWYQQKPGQSPKPLIYSASYRYSGVPDRFTGSGSGTDFTLTISNVQSEDLAEYCCQQYHSYPFTFGSGTKLEVK
- Kd [5]: 650 pM

B7: recombinantly expressed 1F2 polymeric IgA (antibody, V domains shown)
VH: QVHLQQSGPEVARPGASVKLSCKASGYTFTDYYLNWVKQRPRQGLEWIGQIHPGSTNTYYNEKFKGKATLTADKSSSTAYMQLSSLTFEDSAVYFCAISLGDGYYVYAMVCWGQGTAVTVSS
VL: DIVMTQSQKFMSTSVGDRVSVTCKASQNVVTNVVWYQQKPGQSPKPLIYSASYRYSGVPDRFTGSGSGTDFTLTISNVQSEDLAEYCCQQYHSYPFTFGSGTKLEVK
- Kd [5]: 280 pM

B8: recombinantly expressed 1F2 monomeric IgA (antibody, V domains shown)
VH: QVHLQQSGPEVARPGASVKLSCKASGYTFTDYYLNWVKQRPRQGLEWIGQIHPGSTNTYYNEKFKGKATLTADKSSSTAYMQLSSLTFEDSAVYFCAISLGDGYYVYAMVCWGQGTAVTVSS
VL: DIVMTQSQKFMSTSVGDRVSVTCKASQNVVTNVVWYQQKPGQSPKPLIYSASYRYSGVPDRFTGSGSGTDFTLTISNVQSEDLAEYCCQQYHSYPFTFGSGTKLEVK
- Kd [5]: 958 pM

B9: monoclonal antibody 3G1 (hybridoma-produced, murine IgG2a) (antibody, V domains shown)
VH: QVQLQQSGAELMKPGASVKISCKATGYKFTSYWIGWVKQRPGHGLEWCGEIFPGSGSINYNEKFKGKATFTADTSSNTAYLQLTSLTSEDSAVYYCARGEDYYGSSYGAMDYWGQGTSLTVSS
VL: DVQITQSPSYLAASPGETITINCRASKSISKYVAWYQEKPGRTNKVLIYSGSILSFGNPSRFSGSGSGTDFTLTISSLEPEDFAMYYCQQHNEYPWTFGGGTKLEIK
- binding result [2]: binds
- IC50 (read off the curve) [4]: 3 µg/mL

B10: monoclonal antibody 4B2 (hybridoma-produced, murine IgG2a) (antibody, V domains shown)
VH: QIQLVQSGPELKKPGETVKISCKASGFTFTDYPMHWVKQAPGKSLKWMGWINTETEEPTYSDDFKGRSPLSLETSASTTYLQINNLKNEDTSTYFCVRSGYYYGSTYAWFGYWGQGTLVTVSA
VL: DVVMTQIPLSLPVSLGDQASISCRSSQSLIHTNGDTFLHWYLQKPGQSPKLLIYKVSNRFSGVPDRFTGGGSGTDFTLKISRVEAEDLGIYFCSQSALFPYTFGGGTNLEIK
- binding result [2]: binds

B11: monoclonal antibody 1F4 (hybridoma-produced, murine IgG2a) (antibody, V domains shown)
VH: QVHLQQSGSELRSPGSSVKLSCKDFDSEVFPIVYMRWIRQKPGHGFEWIGDILPSFGRTIYGEKFEDKATLDADTVSNTAYLELNSLTSEDSAIYYCARGDHGNWLAYWGQGTLVTVSA
VL: DIVMTQSHKFMSTSVGDRVTITCKASQDVSTNVAWYQQKPGQSPKLLIYWASTRHTGVPNRFTGIISGTDYTLTISSVQAEDRALYYCQQHYSAPWTFGGGTKLEIK
- binding result [2]: binds
- IC50 (read off the curve) [4]: 4 µg/mL
- EC50 (read off the curve) [6]: 0.05 µg/mL

B12: recombinantly expressed 4F11 IgG2b (antibody, V domains shown)
VH: DVKLVESGGDLVKPGGSLKLSCAASGFTFSAYSMSWVRQTPERRLEWVATINTGGSFTYYPDSVKGRFTISRDNAKNTLYLQMSSLKSEDTAMYFCTRVSDYGNSAYFPYWGQGTLVIVFA
VL: QVVLTQSPALISASPGEKVTMTCSASSNVNYMSWYQQRPRSSPKPWIYLTSKLASGVPPRFSGSGSGTSYSLTISSMEAEDVATYYCQQWSSDPQTFGGGTKVEIK
- Kd [5]: 2.98 pM
- EC50 (read off the curve) [7]: 0.06 µg/mL
- IC50 (read off the curve) [8]: 0.2 µg/mL

B13: recombinantly expressed 4F11 monomeric IgA (antibody, V domains shown)
VH: DVKLVESGGDLVKPGGSLKLSCAASGFTFSAYSMSWVRQTPERRLEWVATINTGGSFTYYPDSVKGRFTISRDNAKNTLYLQMSSLKSEDTAMYFCTRVSDYGNSAYFPYWGQGTLVIVFA
VL: QVVLTQSPALISASPGEKVTMTCSASSNVNYMSWYQQRPRSSPKPWIYLTSKLASGVPPRFSGSGSGTSYSLTISSMEAEDVATYYCQQWSSDPQTFGGGTKVEIK
- Kd [5]: 4.72 pM

B14: monoclonal antibody 4F11 (hybridoma-produced, murine IgG2b) (antibody, V domains shown)
VH: DVKLVESGGDLVKPGGSLKLSCAASGFTFSAYSMSWVRQTPERRLEWVATINTGGSFTYYPDSVKGRFTISRDNAKNTLYLQMSSLKSEDTAMYFCTRVSDYGNSAYFPYWGQGTLVIVFA
VL: QVVLTQSPALISASPGEKVTMTCSASSNVNYMSWYQQRPRSSPKPWIYLTSKLASGVPPRFSGSGSGTSYSLTISSMEAEDVATYYCQQWSSDPQTFGGGTKVEIK
- binding result [2]: binds
- EC50 (read off the curve) [7]: 0.05 µg/mL
- IC50 (read off the curve) [8]: 0.2 µg/mL

B15: recombinantly expressed 4F11 IgG2a (antibody, V domains shown)
VH: DVKLVESGGDLVKPGGSLKLSCAASGFTFSAYSMSWVRQTPERRLEWVATINTGGSFTYYPDSVKGRFTISRDNAKNTLYLQMSSLKSEDTAMYFCTRVSDYGNSAYFPYWGQGTLVIVFA
VL: QVVLTQSPALISASPGEKVTMTCSASSNVNYMSWYQQRPRSSPKPWIYLTSKLASGVPPRFSGSGSGTSYSLTISSMEAEDVATYYCQQWSSDPQTFGGGTKVEIK
- Kd [5]: 3.36 pM

B16: recombinantly expressed 4F11 IgG1 (antibody, V domains shown)
VH: DVKLVESGGDLVKPGGSLKLSCAASGFTFSAYSMSWVRQTPERRLEWVATINTGGSFTYYPDSVKGRFTISRDNAKNTLYLQMSSLKSEDTAMYFCTRVSDYGNSAYFPYWGQGTLVIVFA
VL: QVVLTQSPALISASPGEKVTMTCSASSNVNYMSWYQQRPRSSPKPWIYLTSKLASGVPPRFSGSGSGTSYSLTISSMEAEDVATYYCQQWSSDPQTFGGGTKVEIK
- Kd [5]: 8.91 pM

B17: recombinantly expressed 4F11 IgM (antibody, V domains shown)
VH: DVKLVESGGDLVKPGGSLKLSCAASGFTFSAYSMSWVRQTPERRLEWVATINTGGSFTYYPDSVKGRFTISRDNAKNTLYLQMSSLKSEDTAMYFCTRVSDYGNSAYFPYWGQGTLVIVFA
VL: QVVLTQSPALISASPGEKVTMTCSASSNVNYMSWYQQRPRSSPKPWIYLTSKLASGVPPRFSGSGSGTSYSLTISSMEAEDVATYYCQQWSSDPQTFGGGTKVEIK
- Kd [5]: 5.11 pM

B18: recombinantly expressed 4F11 polymeric IgA (antibody, V domains shown)
VH: DVKLVESGGDLVKPGGSLKLSCAASGFTFSAYSMSWVRQTPERRLEWVATINTGGSFTYYPDSVKGRFTISRDNAKNTLYLQMSSLKSEDTAMYFCTRVSDYGNSAYFPYWGQGTLVIVFA
VL: QVVLTQSPALISASPGEKVTMTCSASSNVNYMSWYQQRPRSSPKPWIYLTSKLASGVPPRFSGSGSGTSYSLTISSMEAEDVATYYCQQWSSDPQTFGGGTKVEIK
- Kd [5]: 2.42 pM
